Results as given in patent US6699969.

Molecular target: taxol-stabilized microtubules prepared from bovine brain tubulin, P81947
Sequence (P81947 whole entry, chain 1 of 2): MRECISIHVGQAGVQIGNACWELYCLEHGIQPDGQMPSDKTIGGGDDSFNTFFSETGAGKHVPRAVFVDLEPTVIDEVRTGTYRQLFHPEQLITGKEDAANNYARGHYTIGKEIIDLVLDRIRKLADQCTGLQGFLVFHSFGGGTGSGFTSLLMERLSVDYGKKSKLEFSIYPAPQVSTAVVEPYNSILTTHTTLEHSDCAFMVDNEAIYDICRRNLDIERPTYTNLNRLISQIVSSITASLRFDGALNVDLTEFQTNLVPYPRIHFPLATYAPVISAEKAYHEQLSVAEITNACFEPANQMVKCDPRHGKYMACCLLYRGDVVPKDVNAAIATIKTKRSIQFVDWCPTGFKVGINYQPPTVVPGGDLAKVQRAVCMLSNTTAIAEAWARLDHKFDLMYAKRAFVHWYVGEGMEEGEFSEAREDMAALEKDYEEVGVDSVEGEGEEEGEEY
Sequence (chain, as listed by the source, chain 2 of 2): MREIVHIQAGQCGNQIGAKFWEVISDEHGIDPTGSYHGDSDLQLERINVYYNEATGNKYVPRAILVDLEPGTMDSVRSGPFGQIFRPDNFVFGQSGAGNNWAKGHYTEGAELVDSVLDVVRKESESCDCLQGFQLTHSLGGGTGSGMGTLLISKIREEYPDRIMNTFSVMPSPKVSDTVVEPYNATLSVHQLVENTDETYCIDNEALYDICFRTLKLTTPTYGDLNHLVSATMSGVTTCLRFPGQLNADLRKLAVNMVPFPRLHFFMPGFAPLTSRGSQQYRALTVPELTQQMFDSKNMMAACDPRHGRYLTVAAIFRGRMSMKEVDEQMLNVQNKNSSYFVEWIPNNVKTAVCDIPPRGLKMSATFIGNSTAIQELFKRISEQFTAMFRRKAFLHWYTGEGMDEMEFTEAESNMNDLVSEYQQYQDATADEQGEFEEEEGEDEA

B1: baculovirus co-expressed S. purpuratus katanin p60/p80 heterodimer, each subunit with N-terminal His(6) tag (protein)
chain 1: MSVDEICENTKMGREYALLGNYETSLVYYQGVLQQIQKLLTSVHEPQRKHQWQTIRQELSQEYEHVKNITKTLNGFKSEPAAPEPAPNHGRAAPFSHHQHAAKPAAAEPARDPDVWPPPTPVDHRPSPPYQRAARKDPPRRSEPSKPANRAPGNDRGGRGPSDRRGDARSGGGGRGGARGSDKDKNRGGKSDKDKKAPSGEEGDEKKFDPAGYDKDLVENLERDIVQRNPNVHWADIAGLTEAKRLLEEAVVLPLWMPDYFKGIRRPWKGVLMVGPPGTGKTMLAKAVATECGTTFFNVSSASLTSKYHGESEKLVRLLFEMARFYAPSTIFIDEIDSICSKRGTGSEHEASRRVKSELLIQMDGVSGPSAGEESSKMVMVLAATNFPWDIDEALRRRLEKRIYIPLPEIDGREQLLRINLKEVPLADDIDLKSIAEKMDGYSGADITNVCRDASMMAMRRRIQGLRPEEIRHIPKEELNQPSTPADFLLALQKVSKSVGKEDLVKYMAWMEEFGSV
chain 2: MATKRAWKLQELVAHSSNVNCLALGPMSGRVMVTGGEDKKVNLWAVGKQNCIISLSGHTSPVDSVKFNSSEELVVAGSQSGTMKIYDLEPAKIVRTLTGHRNSIRCMDFHPFGEFVASGSTDTNVKLWDVRRKGCIYTYKGHSDQVNMIKFSPDGKWLVTASEDTTIKLWDLTMGKLFQEFKNHTGGVTGIEFHPNEFLLASGSSDRTVQFWDLETFQLVSSTSPGASAVRSISFHPDGSYLFCSSQDMLHAFGWEPIRCFDTFSVFWGKVADTVIASTQLIGASFNATNVSVYVADLSRMSTTGIAQEPQSQPSKTPSGGAEEVPSKPLTASGRKNFVRERPHTTSSKQRQPDVKSEPERQSPTQDEGVKDDDATDIKDPDSYAKIFSPKTRVDHSPERNAQPFPAPLDVPGAQEPEPFKHPPKPAAAAAVAPVSRAPAPSASDWQPAQANPAPNRVPAATKPVPAQEVAPSRKPDPISTIIPSDRNKPANLDMDAFLPPAHAQQAPRVNAPASRKQSDSERIEGLRKGHDSMCQVLSSRHRNLDVVRAIWTAGDAKTSVESVVNMKDQAILVDILNIMLLKKSLWNLDMCVVVLPRLKELLSSKYENYVHTSCACLKLILKNFTSLFNQNIKCPPSGIDITREERYNKCSKCYSYLIATRGYVEEKQHVSGKLGSSFRELHLLLDQLE
  ATPase activity (ATP turnover), stimulation by microtubules: this activity was stimulated ~10-fold by microtubules
  maximal microtubule-stimulated ATPase rate: maximal microtubule-stimulated rate of 3 ATP/katanin/sec
  microtubule concentration at peak ATPase stimulation: peak at ~2 uM tubulin
  microtubule severing, fluorescence microscopy assay: Both p60 and p60/p80 severed microtubules in this assay

B2: baculovirus-expressed S. purpuratus katanin p60 subunit with N-terminal His(6) tag (protein)
chain: B1 chain 1
  microtubule concentration at peak ATPase stimulation: peak at ~2 uM tubulin
  microtubule severing, fluorescence microscopy assay: Both p60 and p60/p80 severed microtubules in this assay
  microtubule-stimulated ATPase activity: p60 alone displayed a microtubule-stimulated ATPase activity
